Patent US20220119552A1

How the values were obtained:
[1] = biological target: Carcinoembryonic antigen (CEA) on CEA positive cells (UniProt P06731); test: cell-based or functional assay
[2] = biological target: CD3 on human T cells (human) (UniProt P07766); test: flow cytometry on T cells coated with 1 µg/mL antibody
UniProt P07766, sequence (P07766 23-207, chain 1 of 3): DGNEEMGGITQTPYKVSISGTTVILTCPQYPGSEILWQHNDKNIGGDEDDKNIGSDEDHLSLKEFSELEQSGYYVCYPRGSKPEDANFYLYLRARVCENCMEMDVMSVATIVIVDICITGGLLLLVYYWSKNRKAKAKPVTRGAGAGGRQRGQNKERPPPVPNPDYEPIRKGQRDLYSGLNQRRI
UniProt P07766, sequence (P04234 22-171, chain 2 of 3, further chain): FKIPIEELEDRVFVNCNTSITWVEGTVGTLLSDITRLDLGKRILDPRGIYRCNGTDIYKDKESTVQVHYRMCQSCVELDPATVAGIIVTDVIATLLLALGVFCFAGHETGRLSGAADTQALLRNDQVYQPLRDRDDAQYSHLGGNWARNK
UniProt P07766, sequence (P09693 23-182, chain 3 of 3, further chain): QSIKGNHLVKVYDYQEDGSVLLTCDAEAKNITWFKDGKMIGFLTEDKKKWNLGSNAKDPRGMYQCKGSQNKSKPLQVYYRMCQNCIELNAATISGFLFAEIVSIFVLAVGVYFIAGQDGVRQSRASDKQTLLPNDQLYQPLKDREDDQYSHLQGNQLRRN

UniProt P06731, sequence (P06731 35-702): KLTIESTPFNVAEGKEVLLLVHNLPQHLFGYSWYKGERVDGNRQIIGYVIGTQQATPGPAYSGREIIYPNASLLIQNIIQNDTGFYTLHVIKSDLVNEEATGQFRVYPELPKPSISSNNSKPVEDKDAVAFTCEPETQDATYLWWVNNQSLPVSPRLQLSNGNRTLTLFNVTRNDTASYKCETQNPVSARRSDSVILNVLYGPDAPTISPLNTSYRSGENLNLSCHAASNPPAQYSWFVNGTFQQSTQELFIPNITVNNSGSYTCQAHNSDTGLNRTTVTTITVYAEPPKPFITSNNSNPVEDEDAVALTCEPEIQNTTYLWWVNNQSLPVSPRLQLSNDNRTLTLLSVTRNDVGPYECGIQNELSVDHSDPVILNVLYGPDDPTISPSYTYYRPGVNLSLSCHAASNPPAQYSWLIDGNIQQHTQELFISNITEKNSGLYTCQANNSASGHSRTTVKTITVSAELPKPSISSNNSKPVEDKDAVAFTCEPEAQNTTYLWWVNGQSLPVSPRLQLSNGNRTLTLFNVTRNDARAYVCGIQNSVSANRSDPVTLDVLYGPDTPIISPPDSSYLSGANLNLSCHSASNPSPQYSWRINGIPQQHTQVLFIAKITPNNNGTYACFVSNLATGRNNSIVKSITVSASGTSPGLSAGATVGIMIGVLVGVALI

| redirected cell lysis, T-cells coated with preformed dbBiTEs, E:T 10:1 [1] [%] | redirected cell lysis, on-cell (in situ) generated dbBiTE coated T-cells, E:T 10:1 [1] [%] | percent of cells labelled [2] [%] | Substance |
| --- | --- | --- | --- |
| 90 | 60 |  | dbBiTE (dual specific bivalent bispecific T-cell engaging antibody: DBCO-hOKT3 clicked to azide-M5A) (bispecific antibody) |
|  |  | > 90 | DBCO-hOKT3 (humanized anti-human CD3 antibody hOKT3 conjugated to DBCO) |
